Measured values reported in the supplement of paper PMC9170038.

System: MS2 coat protein
Test: apparent KD of MS2 coat protein; designed switch direction (-1 OFF switch, 1 ON switch): 1; higher = weaker reporter binding
Method in brief: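 On Illumina chips, designed RNA switches with common flanks were made by stalled E. coli RNA polymerase. Titrations with SNAP-549-labelled MS2 coat protein, doubling from 0.7 or 1.5 nM to 3 µM, were done with no input, with 200 uM small-molecule ligand, or with an oligonucleotide input. Apparent KD is the median per design over clusters, from curve fits of normalised cluster fluorescence.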

[1] = input ligand: microRNA oligo, concentration not stated
[2] = Eterna round: R95, input ligand: FMN 200 uM
[3] = Eterna round: R95, input ligand: microRNA oligo, concentration not stated
[4] = Eterna round: R95, input ligand: none

Row | Sequence | apparent KD of MS2 coat protein (input ligand: FMN 200 uM) [nM] | apparent KD of MS2 coat protein [1] [nM] | apparent KD of MS2 coat protein (input ligand: none) [nM] | apparent KD of MS2 coat protein [2] [nM] | apparent KD of MS2 coat protein [3] [nM] | apparent KD of MS2 coat protein [4] [nM]
1 | UAUCCAUAGAUAGGAUAUUAGAGAACAUGAGGAUCACCCAUGUUUGGCUUGGUUUUAAGCCAAUCUAAGAAGGAUCUUGAUGAA [SameState NG2 #10] (Eterna round: R96, puzzle: Same State NG 2) | 22.1 | 66.5 | 72.1 | – | – | –
2 | GCGAAAGCAGGAGGAUAUGCAGAGGAUCACCCUGUAGAAGGCCACAGAGGAGGAUAUGCAGAGGAUCACCCUGUAGAAGGCCAC [pwkr ssNG DX.17] (Eterna round: R96, puzzle: Same State NG 1) | 176 | 262 | 303 | – | – | –
3 | GCCGACUAAUGAGGAUAUGGCACCUUAUUGGUGCCAGAAGGCAUGUCAAUUGACAUGAGGAUCACCCAUGUAUUAUAGUUGGCG [salish99_SSNG1_r04_602] (Eterna round: R96, puzzle: Same State NG 1) | 96.5 | 177 | 449 | – | – | –
4 | GUGGUCAGACAUGAGGAUCACCCAUGUGGAAUAAAUAACGACUAGGAUAUAUAAUAUAGGAUAUAAUAGAAGGAGUGAUUGGUG (Eterna round: R96, puzzle: Same State NG 3) | 72.3 | 49.5 | 58.8 | – | – | –
5 | GGUCGGACUCACAUGAGGAUCACCCAUGUUGCGGAAACGCGACAGGAUAUCUGUCCGAAAAGGUCAGAGAAGGGUCAACCGACC [Fiskers NG3ss - 58] (Eterna round: R96, puzzle: Same State NG 3) | 853 | 431 | 504 | – | – | –
6 | GUAAUCGUUAUAGGAUAUCAUGAGGAUUACCCAUGAGAAGGGUGAUCCCGAUCCAUAUUCAGAAAAUGAAUGUGGAUAGAUUGC [Omei NG1 A] (Eterna round: R96, puzzle: Same State NG 1) | 46.8 | 20.6 | 55.4 | – | – | –
7 | AACCAGAGAAAACAACUCUGACAUGAGGAUCACCCAUGUACACAGGAUAUCAGCCCGAAAAGGGCUGAGAAGGGUGGCCGAGUG [Beveat] (Eterna round: R96, puzzle: Same State NG 3) | 574 | 29.2 | 33.9 | – | – | –
8 | GCGGAACGGGCCGACAUGAGGAUCACCCAUGUGGCCUCAUGUCAGGAUAUCGGGAAGAAGAAAACCGAGAAGGGACGGUGACGC [AK SSNG3-V2-32] (Eterna round: R96, puzzle: Same State NG 3) | 8.18 | 29.8 | 22.2 | – | – | –
9 | AAUUUAAUACAUGAGGAUCACCCAUGUAAUACUUGUAAGAUCAAGGAUAUCAGCUCGAAUAGAGCUGAGAAGGUGAUCACAUGU [SSNG3/19-D1] (Eterna round: R96, puzzle: Same State NG 3) | – | 24.9 | – | – | – | –
10 | ACUUGCUUUUUGCUCGUAUAUUGUCCGUUACAUGAGGAUCACCCAUGUGUAUAUUAUGUGUUGUUUUUGAUACGUGU [JR_SHM208A_Sub069] (puzzle: Sensor for hsa-mir-208a) | – | – | – | 36.2 | 33.9 | 43.7
11 | UGUUGUAUUACAGGAUAUCUAUGAUUUUGAUUUAGAGAAGGGUAUUCACAUGAGGAUCACCCAUGUAUAUACGAGGAAGUUGUG [JMF's solution 64] (Eterna round: R96, puzzle: Same State NG 1) | – | 40.4 | – | – | – | –
12 | GUUAAACAUGAGGAUCACCCAUGUCAAUGUAGUCGAGGAUAUGGGCAGCUAUGAGGCGUACUAGAAGGCGAUGAGU [Mat - Same State 1 - Mod of JL - D14] (puzzle: Same State 1) | – | – | – | 38.6 | 133 | 150
13 | UUGAAGAAUUAAGGAUAUUGAGUACAUAUGUUUAACAUGAGGAUCACCCAUGUGGGUUGCGGUAUCGAGAAGGUAAAUUAAUAG [Mat - same State NG 2 - JL mod - D66] (Eterna round: R96, puzzle: Same State NG 2) | 94.4 | 126 | 157 | – | – | –
14 | UAACGCGCAUGCAAGGAUAUGUGCAGAGCUACAUGAGGAUCACCCAUGUGGUUAUGCUAUUGAAAACAGAAGGUGCCCUCGCUCA [Ceties] (Eterna round: R96, puzzle: Same State 2) | 20.7 | 16.4 | 22.7 | – | – | –
15 | GUUACAUGAGGAUCACCCAUGUAUGUGUGGGAGUAAGUGUCUUAGGAUAUCUAUUGUUUAAAUUAAGAGAAGGAAGAUUGUUGU [JMF's solution 13] (Eterna round: R96, puzzle: Same State NG 3) | 102 | 84.3 | 117 | – | – | –
16 | GGGAGACCUCAAGGAUAUGCUACCGUUUCGGUAGCAGAAGGUGAUCACAUGAGGAUCACCCAUGUAUGCAUGCGUGAGCGUGCU [JL SSNG1 3.58] (Eterna round: R96, puzzle: Same State NG 1) | 79.4 | 11.6 | 67.8 | – | – | –

Row | Sequence | apparent KD of MS2 coat protein (input ligand: FMN 200 uM) [nM] | apparent KD of MS2 coat protein [1] [nM] | apparent KD of MS2 coat protein (input ligand: none) [nM] | apparent KD of MS2 coat protein [2] [nM] | apparent KD of MS2 coat protein [3] [nM] | apparent KD of MS2 coat protein [4] [nM]
17 | GGAGCCGGCACCGAGGAUAUUCAUAUUAAAACAUGAGGAUCACCCAUGUACCGGAGAACCGGUUGGGAGAAGGCGGAUCGGCUCG [Xeonanis - 24] (puzzle: Same State 2) | – | – | – | 35.4 | 333 | 596
18 | UUAUUCUAUAUAGGAUAUUGAUGUAAUUUAUUUCAAGAAGGAUAUACAUGAGGAUCACCCAUGUUGGAUAGGGUUAGUUUGUUU [JR_SSNG1_Sub080] (Eterna round: R96, puzzle: Same State NG 1) | – | 58.2 | – | – | – | –
19 | GUAGCAUACCGAGGAUAUUCAAACCGGAAACGGACAUGAGGAUCACCCAUGUGGCGAAAGCCUUGGGAGAAGGCGGAAUGCUAC [Xeonanis - 20 Mod76] (Eterna round: R96, puzzle: Same State NG 2) | 6.08 | 21.7 | 19.1 | – | – | –
20 | GGAGAGAGAGCGCAGGAUAUUUAAGGAGAAACAUGAGGAUCACCCAUGUGAGAGAGAGAGGAGAGAGAGAAGGGUGAGAGAGAGG [Altered State 2-16 - Jieux - Same State 2] (puzzle: Same State 2) | – | – | – | 26.7 | 23.9 | 36.2
21 | UGGAUGGUGAUAGGAUAUACAUGAGGAAUCCUCGUAGAAGGAUCACGACAUGAGGAUCACCCAUGUAGCCGUCCGUAGACGGCU [salish99_SSNG1_r04_004] (Eterna round: R96, puzzle: Same State NG 1) | 478 | 122 | 711 | – | – | –
22 | UGUUAGUAGUGAGGAUAUACAUACACCUUACAUGAGGAUCACCCAUGUUUUAAGAUUGAUAGAUAGUAGAAGGCACAUGAUGAU [JR_SSNG2_Sub042] (Eterna round: R96, puzzle: Same State NG 2) | – | 38.2 | – | – | – | –
23 | GGAGCCAAGGCAGGAUAUUCAUAUUAAAUACAUGAGGAUCACCCAUGUUAGGCCAGAAGGCCUUGGGAGAAGGGCCAUGGCUCG [Xeonanis - 13 mod20] (Eterna round: R96, puzzle: Same State NG 2) | 17 | 34.1 | 52.5 | – | – | –
24 | UUGAAGAACUAAGGAUAUUGAAUACAUAUGUUUAACAUGAGGAUCACCCAUGUGGGUUGCGGUGUCGAGAAGGUAGAAUAAUAG [Mat - same State NG 2 - JL mod - D96] (Eterna round: R96, puzzle: Same State NG 2) | 185 | 148 | 272 | – | – | –
25 | CAGCGCUGUCGAGAGGAUAUGCGGUGAUGGACAUGAGGAUCACCCAUGUUAGCGACAGCAUUACGGUAGAAGGCUUCACAGCUGC [Soteed Omei mod 15] (Eterna round: R96, puzzle: Same State 2) | 287 | 14.4 | 55.7 | – | – | –
26 | GGAGCCAAGGCAGGAUAUUCAUUAUAAAUAACAUGAGGAUCACCCAUGUUGGCCAGAAGGCCAUGGGAGAAGGGCCAUGGCUCG [Xeonanis - 13 mod24] (Eterna round: R96, puzzle: Same State NG 2) | 17.7 | 73.7 | 105 | – | – | –
27 | GUGGCGGGUUGAGGAUAUUGGUUGCCGCUGUUUUACAUGAGGAUCACCCAUGUGGGUUGCGGUUUCGAGAAGGGAGGUUGCUGG [salish99_SSNG2_r04_055] (Eterna round: R96, puzzle: Same State NG 2) | 14.2 | 11.7 | 17.6 | – | – | –
28 | GCGAUAUGAUGUUACAUGAGGAUCACCCAUGUAGCGAUAGCUAAGGAUAUUUGAAAGGGAGGAGAAGAGAAGGUAGGAUCACGC [AK SSNG3-V2-22.2] (Eterna round: R96, puzzle: Same State NG 3) | 24.6 | 18.6 | 20.3 | – | – | –
29 | UGUUGUAUUACAGGAUAUCUAUGAUUAUUAUUUAGAGAAGGGUAUUCACAUGAGGAUCACCCAUGUAUAUACGAGGAAGUUGUG [JMF's solution 59] (Eterna round: R96, puzzle: Same State NG 1) | – | 31.2 | – | – | – | –
30 | ACUAUUAAUGCAGGAUAUGAUUAACAUGAGGAUCACCCAUGUGGUGUUGUGAGUAAGGAGAGUGAUCAGAAGGGCAUUUUUUUU [JMF's solution 37] (Eterna round: R96, puzzle: Same State NG 2) | 992 | 466 | 629 | – | – | –
31 | UGGAUCUAGGCUUGCCUGGGUCCAUGUUGACAUGAGGAUCACCCAUGUGUAUUUUAUAAGCUUUUUGUUUGUCAACA [JL A Humble Attempt mod 7] (puzzle: Sensor for hsa-mir-208a) | – | – | – | 37 | – | 37.6
